Assay results reported in patent publication US20250019435A1 (ALBERT EINSTEIN COLLEGE OF MEDICINE, published 2025).

Columns and labels:
Y298F/Y328F = molecular target: T1, Y298F/Y328F; test: flow cytometry, transduced primary NK cells
T1 construct: also called KIR2DL5 Y298F/Y328F (ITIM and ITSM mutant) on transduced primary NK cells
Method: (§1) The KIR2DL5⁻ primary NK cells were transduced with WT KIR2DL5 or the indicated mutants, and then examined for protein expression with F8B30 (open) or mIgG1 (shaded). NC, negative control. Data are representative of 2 independent experiments. (B and C) Transduced primary NK cells were treated with (+) or without (−) pervanadate (VO₄) for 5 minutes. Cell lysates were immunoprecipitated with anti-KIR2DL5 antibodies. Phospho-tyrosine (4G10), SHP-1, SHP-2, and total KIR2DL5 were detected by immunoblots (B). Quantification of p-Tyr, SHP-1, and SHP-2 association with WT or mutant KIR2DL5 in VO₄-treated NK cells (C). WCL, whole-cell lysates. (D) Representative imaging of cell conjugates acquired upon the indicated transduced primary NK and PVR/Raji cell contact followed by staining with anti-KIR2DL5 mAb and DAPI. Scale bars: […]. (E) Lysis of scramble control or PVR^KO A427 (top) and Jurkat (bottom) by WT or mutant KIR2DL5-transduced primary NK cells at the indicated E/T ratios. Data are mean for duplicate measurements and representative of 3 independent experiments with 3 different donors. In A, and B, data are representative of 3 independent experiments. *P<0.05, **P<0.01, ***P<0.001, ****P<0.0001, by 1-way ANOVA (C), or paired Student's t test (D).
(§2) Primary NK cell transduction. KIR2DL5 wild type and variants of ITIM/ITSM expressed on the surface of KIR2DL5⁻ primary NK cells were introduced by lentiviral transduction. Lentivirus was produced in HEK293T cells cotransfected with psPAX, pMD2.G, and a lentiviral backbone pSin vector (a gift from the Alec Zhang laboratory, Department of Physiology, University of Texas Southwestern Medical Center, Dallas, Texas, USA) containing the full-length gene sequence of KIR2DL5A*001 using jetPRIME reagents (Polyplus Transfection). Virus-containing supernatant was harvested 48-72 hours after transfection and filtered through a 0.45 µm filter. Non-tissue-culture-treated plates were coated with retronectin, and virus supernatant was then incubated on the surface of plates at 2,000 g for 120 minutes at 37° C. […]

Y298F = molecular target: T2, Y298F; test: flow cytometry, transduced primary NK cells
T2 construct: also called KIR2DL5 Y298F (ITIM mutant) on transduced primary NK cells
T2 sequence (receptor chain, as listed by the source Y298F Y298F limits assumed): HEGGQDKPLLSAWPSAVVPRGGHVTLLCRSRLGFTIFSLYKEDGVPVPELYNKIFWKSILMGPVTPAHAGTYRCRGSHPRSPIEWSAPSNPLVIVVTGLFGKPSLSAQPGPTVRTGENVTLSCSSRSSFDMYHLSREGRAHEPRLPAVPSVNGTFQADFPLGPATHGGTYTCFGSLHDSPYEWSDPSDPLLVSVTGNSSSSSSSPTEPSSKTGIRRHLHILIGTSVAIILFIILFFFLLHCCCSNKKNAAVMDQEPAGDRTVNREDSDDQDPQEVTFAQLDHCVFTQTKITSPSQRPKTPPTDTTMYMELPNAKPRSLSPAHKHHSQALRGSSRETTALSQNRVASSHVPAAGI
Method: as §1, §2

Y328F = molecular target: T3, Y328F; test: flow cytometry, transduced primary NK cells
T3 construct: also called KIR2DL5 Y328F (ITSM mutant) on transduced primary NK cells
T3 sequence (receptor chain, as listed by the source Y328F Y328F limits assumed): as the sequence (receptor chain, as listed by the source Y298F Y298F limits assumed) above, with F277Y, Y307F counted along it
Method: as §1, §2

[1] = molecular target: T4, KIR2DL5 wild type (KIR2DL5A*001) expressed on cells (human, UniProt Q8N109 22-375); test: flow cytometry, blocking: KIR2DL5/3T3 cells preincubated with serial F8B30, then 20 µg/mL PVR-Ig
T4 construct: UniProtKB Q8N109 and NP_065396.1 are printed for this entry; In the SHP-1/SHP-2 co-immunoprecipitation the cells were treated with pervanadate and the receptor was tyrosine-phosphorylated; also called KIR2DL5/3T3; WT KIR2DL5
Method: Specifically, a cell-based binding assay was performed by incubating PVR-Ig fusion protein with KIR2DL5- or KIR2DL4-expressing 3T3 cells. Conversely, KIR2DL5 was selectively bound by PVR, but not by CD112 (also known as nectin-2), another ligand for TIGIT and DNAM-1 in the nectin/nectin-like family (FIG. 10A). Furthermore, anti-KIR2DL5 mAb F8B30 blocked KIR2DL5-PVR interaction (EC₅₀=0.095 μM) (FIG. 10B). The specificity of KIR2DL5 binding to PVR was also evidenced by an intercellular interaction assay, in which 3T3 cells expressing PVR interacted with 3T3 cells expressing KIR2DL5, but not with cells expressing KIR3DL3 (FIG. 18B), a newly identified inhibitory receptor of HHLA2 (Zang, 2022; Wei 2021; Bhatt 2021).
Fusion protein cell binding assays. PVR-Ig, CD112-Ig, or hIgG (R&D Systems) was incubated with corresponding 3T3 cells on ice for 45 minutes, followed by incubation with APC- or PE-conjugated anti-human IgG Fc antibody (1:100; clone HP6017, BioLegend) on ice for 30 minutes. Cells were then acquired on an LSR II flow cytometer (BD Biosciences). In the anti-KIR2DL5 mAb blocking assay, KIR2DL5/3T3 cells were preincubated with a serial concentration of anti-KIR2DL5 mAb F8B30 or mIgG1 on ice for 30 minutes. After washing, the cells were then incubated with 20 μg/mL PVR-Ig or hIgG on ice for 45 minutes, followed by incubation with APC anti-human IgG Fc antibody on ice for 30 minutes. […]

[2] = molecular target: T5, KIR2DL5-Ig fusion protein (KIR2DL5 extracellular domain fused to human IgG1 Fc) (human, UniProt Q8N109 22-240); test: BLI, Octet RED96; KIR2DL5-Ig captured on anti-human Fc biosensors, mAb in solution; global 1:1 fit
T5 construct: A D0-only fusion (H22-A128) also exists; also called KIR2DL5-human Ig fusion protein; KIR2DL5 DO-D2-Ig; not shown: human IgG1 Fc tag
T5 sequence (Q8N109 22-240): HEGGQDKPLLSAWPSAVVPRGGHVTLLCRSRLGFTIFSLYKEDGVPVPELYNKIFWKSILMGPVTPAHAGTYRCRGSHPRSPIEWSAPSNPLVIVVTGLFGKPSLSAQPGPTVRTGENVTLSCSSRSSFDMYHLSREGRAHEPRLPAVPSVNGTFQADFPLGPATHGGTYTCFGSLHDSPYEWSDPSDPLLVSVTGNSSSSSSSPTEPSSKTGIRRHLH
Method: Biolayer interferometry. The affinities of anti-KIR2DL5 mAbs were analyzed by biolayer interferometry using an Octet RED96 system (ForteBio, Pall LLC). Briefly, anti-human Fc capture biosensors (ForteBio, Pall LLC) were preloaded with KIR2DL5-Ig and then dipped into a solution containing mAb at 2-fold serial dilutions (from 200 to 1.5 μg/mL). Data were analyzed using Forte Pall (Port Washington, New York, USA) software 9.0. The global data fitting to a 1:1 binding model was used to estimate values for the Kₒₙ (association rate constant), Koff (dissociation rate constant), and KD (equilibrium dissociation constant).

T1 sequence (receptor chain, as listed by the source Y298F Y328F Y298F Y328F limits assumed): as the sequence (receptor chain, as listed by the source Y298F Y298F limits assumed) above, with Y307F counted along it

B1: anti-KIR2DL5 mAb clone F8B30 (antibody, V domains shown)
VH: QIQLVQSGPELKKPGETVKISCKASGYTFTDYSMHWVKQAPGKGLKWMGWINTETGGPTYADDFKGRFAFSLETSATTAYLQINNLKNEDTATYFCSRDVDLYFDYWGQGTTLTVS
VL: DIQMTQSPASLSASVGETVTITCRTSENIYSYLAWYQQKQGKSPQLLVYNAKTLVEGVPSRFSGSGSGTQFSVKINSLQPEDFGNYYCQHHYGIPFTFGGGTKLEIK
notes: also called F8B30 (IgG1, κ)
binding result (Y298F/Y328F): binds
binding result (Y298F): binds
binding result (Y328F): binds
EC50 [1]: 95 nM
Kd [2]: 0.723 nM
koff [2]: 0.000444 s⁻¹
kon [2]: 615000 M⁻¹ s⁻¹
